Our source for the stoichiometry N values is publication PMC6908751.

Read-outs that look alike come from different tables or passages of the source.

Test [1] deals with Sh2 N9 Y169aH NA ectodomain (stabilized tetramer) (influenza A virus A/Shanghai/02/2013 (H7N9)).
Test [2] has the same target. The test is described as follows: crystal structure.

With “Sh2 N9 Y169aH NA ectodomain (stabilized tetramer) (domain or fragment)”, the stoichiometry N in test [1] and in test [2] was 4 throughout.
